From PMC3260166, “HspB2/Myotonic Dystrophy Protein Kinase Binding Protein (MKBP) as a Novel Molecular Chaperone: Structural and Functional Aspects” (PLoS ONE, 2012)

Experiments:
[1] = target: the molecule itself; assay: AUC; sedimentation velocity, 0.125, 1 and 3 mg/ml HspB2 in TNE buffer (50 mM Tris HCl pH 7.4, 1 mM EDTA, 100 mM NaCl), 40,000 rpm, 20°C, interference optics, SEDFIT
[2] = target: the molecule itself; assay: FRET or BRET; subunit exchange: AIAS- and LYI-labelled HspB2 mixed in equimolar ratios in 20 mM HEPES pH 7.4, 100 mM NaCl, at 37°C or 20°C; excitation 332 nm

B1: human HspB2 / Myotonic Dystrophy Protein Kinase Binding Protein (MKBP) (natural protein, UniProt Q16082 1-182, looked up)
chain: MSGRSVPHAHPATAEYEFANPSRLGEQRFGEGLLPEEILTPTLYHGYYVRPRAAPAGEGSRAGASELRLSEGKFQAFLDVSHFTPDEVTVRTVDNLLEVSARHPQRLDRHGFVSREFCRTYVLPADVDPWRVRAALSHDGILNLEAPRGGRHLDTEVNEVYISLLPAPPDPEEEEEAAIVEP
notes: HspB2 (MKBP), human; The reverse primer carries the stop codon (TCA), so the C-terminal His tag of pET21a is probably not translated; also called MKBP/HspB2; source: E. coli BL21 DE3, purified (20% ammonium sulfate precipitation, Phenyl Sepharose)
binding result [1]: binds

B2: human HspB2 labelled at its sole cysteine (Cys118) with AIAS or LYI (natural protein, UniProt Q16082 1-182, looked up)
chain: B1 chain
modifications: cysteine at 118 covalently labelled with AIAS (4-acetamido-4'-((iodoacetyl)amino)stilbene-2,2'-disulfonic acid; donor copy) or with Lucifer Yellow Iodoacetamide (LYI; acceptor copy)
notes: HspB2 (MKBP), human; the same recombinant protein as m1, labelled at the sole cysteine residue (118th position); Two differently labelled copies of the same protein (AIAS donor, LYI acceptor) mixed in equimolar ratio for FRET; also called AIAS-labeled HspB2; LYI-labeled HspB2; source: E. coli BL21 DE3, purified, then labelled with AIAS or LYI and desalted (PD10)
binding result [2]: binds
